Data taken from paper doi:10.1101/157495 (bioRxiv, 2017).

Molecular target: the molecule itself
Assay: SEC

B1: cyclohexadienyl dehydratase from Pseudomonas aeruginosa (PaCDT) (enzyme, UniProt Q01269 26-268, looked up)
chain: QESRLDRILESGVLRVATTGDYKPFSYRTEEGGYAGFDVDMAQRLAESLGAKLVVVPTSWPNLMRDFADDRFDIAMSGISINLERQRQAYFSIPYLRDGKTPITLCSEEARFQTLEQIDQPGVTAIVNPGGTNEKFARANLKKARILVHPDNVTIFQQIVDGKADLMMTDAIEARLQSRLHPELCAVHPQQPFDFAEKAYLLPRDEAFKRYVDQWLHIAEQSGLLRQRMEHWLEYRWPTAHGK
stoichiometry N: 3
